Assay results published in paper PMC12509757.
Where a chain is given by its changes, count along the chain named. Numbers in names are those of the source.

How the values were obtained:
[1] = molecular target: microtubules of HEK293T cells (microtubule fraction), P68363;P07437; experiment: tubulin/microtubule fractionation of HEK293T lysates (immunoblot); settings: chain shown with the change;
[2] = molecular target: microtubules of osteoclasts (polymerized from endogenous tubulin) (mouse (endogenous in RAW264.7-derived osteoclasts)) (UniProt P05213); experiment: co-sedimentation; tubulin/microtubule fractionation of Arhgap10 KO #28 osteoclasts expressing doxycycline-induced myc-ARHGAP10 constructs; immunoblot (Fig. S2)
microtubules of osteoclasts (polymerized from endogenous tubulin) (mouse (endogenous in RAW264.7-derived osteoclasts)), sequence (P05213 whole entry, chain 1 of 2): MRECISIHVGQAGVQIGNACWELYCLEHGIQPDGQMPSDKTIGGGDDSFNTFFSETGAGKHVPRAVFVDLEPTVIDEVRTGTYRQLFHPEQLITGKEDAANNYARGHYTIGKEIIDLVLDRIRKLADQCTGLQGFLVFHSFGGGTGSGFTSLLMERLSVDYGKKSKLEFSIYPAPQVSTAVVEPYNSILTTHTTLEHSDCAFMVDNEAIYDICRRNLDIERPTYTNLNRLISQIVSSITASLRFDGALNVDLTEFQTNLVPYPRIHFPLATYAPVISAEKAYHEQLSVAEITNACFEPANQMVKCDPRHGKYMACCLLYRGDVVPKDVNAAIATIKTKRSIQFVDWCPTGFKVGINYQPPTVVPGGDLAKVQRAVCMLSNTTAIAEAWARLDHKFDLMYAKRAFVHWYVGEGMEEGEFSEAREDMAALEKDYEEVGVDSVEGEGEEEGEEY
microtubules of osteoclasts (polymerized from endogenous tubulin) (mouse (endogenous in RAW264.7-derived osteoclasts)), sequence (P99024 whole entry, chain 2 of 2, further chain): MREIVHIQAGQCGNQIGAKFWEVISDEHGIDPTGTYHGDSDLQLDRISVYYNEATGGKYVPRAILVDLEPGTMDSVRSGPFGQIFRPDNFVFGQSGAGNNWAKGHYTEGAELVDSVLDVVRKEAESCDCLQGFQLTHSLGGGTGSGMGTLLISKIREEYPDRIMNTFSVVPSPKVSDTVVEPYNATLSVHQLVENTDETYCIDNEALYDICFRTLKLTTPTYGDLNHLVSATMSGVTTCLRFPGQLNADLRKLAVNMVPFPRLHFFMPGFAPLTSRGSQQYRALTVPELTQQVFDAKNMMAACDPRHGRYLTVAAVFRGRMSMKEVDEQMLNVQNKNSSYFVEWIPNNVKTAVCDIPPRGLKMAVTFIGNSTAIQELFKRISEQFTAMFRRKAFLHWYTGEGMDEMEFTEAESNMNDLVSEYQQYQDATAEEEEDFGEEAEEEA

[3] = molecular target: microtubules polymerized from pig brain tubulin (pig) (UniProt P02550); experiment: co-sedimentation; in vitro; recombinant His GST protein (1 μM in the legends, 2 μM in the methods) with increasing concentrations of microtubules from pig brain tubulin (or BSA instead) in 1X BRB80, 1 mM DTT, 20 μM paclitaxel, 5 min at room temperature; 100,000g, 15 min, 30 °C through 40% glycerol; immunoblot of supernatant and pellet; apparent Kd, one site-specific binding fit

microtubules of HEK293T cells (microtubule fraction), P68363;P07437, sequence (chain, as listed by the source, chain 1 of 2): as the sequence (P05213 whole entry, chain 1 of 2) above
microtubules of HEK293T cells (microtubule fraction), P68363;P07437, sequence (chain, as listed by the source, chain 2 of 2): as the sequence (P99024 whole entry, chain 2 of 2, further chain) above

B1: myc-tagged full-length human ARHGAP10, WT (HEK293T), A1A4S6 K37E; K41E; K44E (protein)
chain: MGLQPLEFSDCYLDSPWFRERIRAHEAELERTNKFIEELIEDGENLIAATKSLSVAQRKFAHSLRDFKFEFIGDAVTDDERCIDASLREFSNFLKNLEEQREIMALSVTETLIKPLEKFRKEQLGAVKEEKKKFDKETEKNYSLIDKHLNLSAKKKDSHLQEADIQVEQNRQHFYELSLEYVCKLQEIQERKKFEFVEPMLSFFQGMFTFYHQGHELAKDFNHYKMELQINIQNTRNRFEGTRSEVEELMNKIRQNPKDHKRASQFTAEGYLYVQEKRPAPFGSSWVKHYCMYRKAAKKFNMIPFEHRSGGKLGDGEVFFLKECTKRHTDSIDRRFCFDIEAADRPGVSLTMQAFSEEERKQWLEALGGKEALSHSFNTAIIPRPEGNAQLDKMGFTIIRKCISAVETRGINDQGLYRVVGVSSKVQRLLSMLMDVKTCNEVDLENSADWEVKTITSALKQYLRSLPEPLMTYELHGDFIVPAKSGSPESRVNAIHFLVHKLPEKNKEMLDILVKHLTNVSNHSKQNLMTVANLGVVFGPTLMRPQEETVAALMDLKFQNIVVEILIENHEKIFRTPPDTTFPEPTCLSASPPNAPPRQSKRQGQRTKRPVAVYNLCLELEDGDNPYPSKEDTPTSSLDSLSSPSPVTTAVPGPPGPDKNHLLADGGSFGDWASTIPGQTRSSMVQWLNPQSPTTTSSNSAVTPLSPGSSPFPFSPPATVADKPPESIRSRKARAVYPCEAEHSSELSFEIGAIFEDVQTSREPGWLEGTLNGKRGLIPQNYVKLL
Question: How did the response ([1]; parent: 59.1) turn out when B1 was run?
Answer: Its response is 26 % in MT.

B2: myc-tagged full-length ARHGAP10, WT, re-expressed in Arhgap10 KO osteoclasts (natural protein)
chain: B1 chain with E37K, E41K, E44K
Question: B2 was tested. Which percent associated with the microtubule-containing fraction [2] did it give?
Answer: Its percent associated with the microtubule-containing fraction is 50%.

B3: myc-tagged BAR-PH (aa 1-388) of ARHGAP10, WT, A1A4S6 K37E; K41E; K44E (protein)
chain: MGLQPLEFSDCYLDSPWFRERIRAHEAELERTNKFIEELIEDGENLIAATKSLSVAQRKFAHSLRDFKFEFIGDAVTDDERCIDASLREFSNFLKNLEEQREIMALSVTETLIKPLEKFRKEQLGAVKEEKKKFDKETEKNYSLIDKHLNLSAKKKDSHLQEADIQVEQNRQHFYELSLEYVCKLQEIQERKKFEFVEPMLSFFQGMFTFYHQGHELAKDFNHYKMELQINIQNTRNRFEGTRSEVEELMNKIRQNPKDHKRASQFTAEGYLYVQEKRPAPFGSSWVKHYCMYRKAAKKFNMIPFEHRSGGKLGDGEVFFLKECTKRHTDSIDRRFCFDIEAADRPGVSLTMQAFSEEERKQWLEALGGKEALSHSFNTAIIPRPEGN
Question: B3 was tested. Which response ([1]; parent: 60) did it give?
Answer: The response was 32.7 % in MT.

B4: His GST BAR-PH (aa 1-388) of ARHGAP10, WT (domain or fragment)
chain: B3 chain with E37K, E41K, E44K
Question: B4 was tested. Which Kd [3] did it give?
Answer: The Kd was 1270 nM.
